Reference: patent US20230374157A1

Key:
[1] = target: His-tagged human HER3 extracellular domain (Acro ER3-H5223) (human) (UniProt P21860); assay: BLI, antibody on AHC tips, monomeric HER3 ECD in solution, 1:1 fit
[2] = target: His-tagged human EGFR extracellular domain (expressed and purified in-house) (human) (UniProt P00533); assay: BLI, antibody on AHC tips, monomeric EGFR ECD in solution, 1:1 fit

Kd [1]: 4.29 nM
koff [1]: 0.000877 s⁻¹
kon [1]: 205000 M⁻¹ s⁻¹
Kd [2]: 14.6 nM
koff [2]: 0.00438 s⁻¹
kon [2]: 300000 M⁻¹ s⁻¹
B1: SI-1C4 (duligotuzumab), 2-in-1 bispecific antibody against EGFR and HER3 (bispecific antibody, from a related filing, V domains shown)
VH: EVQLVESGGGLVQPGGSLRLSCAASGFTLSGDWIHWVRQAPGKGLEWVGEISAAGGYTDYADSVKGRFTISADTSKNTAYLQMNSLRAEDTAVYYCARESRVSFEAAMDYWGQGTLVTVSS
VL: DIQMTQSPSSLSASVGDRVTITCRASQNIATDVAWYQQKPGKAPKLLIYSASFLYSGVPSRFSGSGSGTDFTLTISSLQPEDFATYYCQQSEPEPYTFGQGTKVEIKR
